± gives the standard deviation of the averaged measurements.
Test: total protein half-life in vivo (active degradation + dilution); higher = more stable protein
[1] = E. coli NCM3722 delta-clpP delta-lon delta-hslV, growth: N-lim chemostat, doubling time 6 h
[2] = E. coli NCM3722 delta-clpP, growth: N-lim chemostat, doubling time 6 h
[3] = E. coli NCM3722 delta-hslV, growth: N-lim chemostat, doubling time 6 h
[4] = E. coli NCM3722 delta-smpB, growth: N-lim chemostat, doubling time 6 h
[5] = wild type E. coli NCM3722, growth: C-lim chemostat, doubling time 3 h
[6] = wild type E. coli NCM3722, growth: C-lim chemostat, doubling time 6 h
[7] = wild type E. coli NCM3722, growth: C-lim chemostat, doubling time 12 h
[8] = wild type E. coli NCM3722, growth: N-lim chemostat, doubling time 6 h
[9] = wild type E. coli NCM3722, growth: N-lim chemostat, doubling time 12 h
[10] = wild type E. coli NCM3722, growth: P-lim chemostat, doubling time 12 h
[11] = E. coli NCM3722 delta-lon, growth: N-lim chemostat, doubling time 6 h
[12] = wild type E. coli NCM3722, growth: P-lim chemostat, doubling time 6 h

## MKISDGNWLIQPGLNLIHPLQVFEVEQQDNEMVVYAAPRDVRERTWQLDTPLFTLRFFSPQEGIVGVRIEHFQGALNNGPHYPLNILQDVKVTIENTERYAEFKSGNLSARVSKGEFWSLDFLRNGERITGSQVKNNGYVQDTNNQRNYMFERLDLGVGETVYGLGERFTALVRNGQTVETWNRDGGTSTEQAYKNIPFYMTNRGYGVLVNHPQCVSFEVGSEKVSKVQFSVESEYLEYFVIDGPTPKAVLDRYTRFTGRPALPPAWSFGLWLTTSFTTNYDEATVNSFIDGMAERNLPLHVFHFDCFWMKAFQWCDFEWDPLTFPDPEGMIRRLKAKGLKICVWINPYIGQKSPVFKELQEKGYLLKRPDGSLWQWDKWQPGLAIYDFTNPDACKWYADKLKGLVAMGVDCFKTDFGERIPTDVQWFDGSDPQKMHNHYAYIYNELVWNVLKDTVGEEEAVLFARSASVGAQKFPVHWGGDCYANYESMAESLRGGLSIGLSGFGFWSHDIGGFENTAPAHVYKRWCAFGLLSSHSRLHGSKSYRVPWAYDDESCDVVRFFTQLKCRMMPYLYREAARANARGTPMMRAMMMEFPDDPACDYLDRQYMLGDNVMVAPVFTEAGDVQFYLPEGRWTHLWHNDELDGSRWHKQQHGFLSLPVYVRDNTLLALGNNDQRPDYVWHEGTAFHLFNLQDGHEAVCEVPAADGSVIFTLKAARTGNTITVTGAGEAKNWTLCLRNVVKVNGLQDGSQAESEQGLVVKPQGNALTITL
[1]
  total protein half-life in vivo: 5.8 h
[2]
  total protein half-life in vivo: 5.9 ± 0.59 h
[3]
  total protein half-life in vivo: 5.652 ± 0.053 h
[4]
  total protein half-life in vivo: 5.11 ± 0.41 h
[5]
  total protein half-life in vivo: 3.394 ± 0.019 h
[6]
  total protein half-life in vivo: 6.93 ± 0.64 h
[7]
  total protein half-life in vivo: 13 ± 0.71 h
[8]
  total protein half-life in vivo: 6.27 h
[9]
  total protein half-life in vivo: 12.7 ± 0.22 h
[10]
  total protein half-life in vivo: 11.5 ± 2.9 h

## MSLPHCPKCNSEYTYEDNGMYICPECAYEWNDAEPAQESDELIVKDANGNLLADGDSVTIIKDLKVKGSSSMLKIGTKVKNIRLVEGDHNIDCKIDGFGPMKLKSEFVKKN [P0AFJ1]
[1]
  total protein half-life in vivo: 5.52 ± 0.25 h
[3]
  total protein half-life in vivo: 6.14 ± 1.1 h
[11]
  total protein half-life in vivo: 5.91 ± 1 h
[4]
  total protein half-life in vivo: 4.71 ± 0.15 h
[5]
  total protein half-life in vivo: 2.53 ± 0.093 h
[7]
  total protein half-life in vivo: 10.2 ± 0.45 h
[8]
  total protein half-life in vivo: 4.88 h
[9]
  total protein half-life in vivo: 10.2 ± 0.21 h
[12]
  total protein half-life in vivo: 5.38 ± 0.21 h

## MARTKLKFRLHRAVIVLFCLALLVALMQGASWFSQNHQRQRNPQLEELARTLARQVTLNVAPLMRTDSPDEKRIQAILDQLTDESRILDAGVYDEQGDLIARSGESVEVRDRLALDGKKAGGYFNQQIVEPIAGKNGPLGYLRLTLDTHTLATEAQQVDNTTNILRLMLLLSLAIGVVLTRTLLQGKRTRWQQSPFLLTASKPVPEEEESEKKE [P0AGC7]
[1]
  total protein half-life in vivo: 4.45 ± 0.17 h
[2]
  total protein half-life in vivo: 4.93 ± 0.059 h
[3]
  total protein half-life in vivo: 4.9 ± 1 h
[11]
  total protein half-life in vivo: 4.57 ± 0.81 h
[4]
  total protein half-life in vivo: 4.34 ± 0.23 h
[5]
  total protein half-life in vivo: 3.05 ± 0.13 h
[6]
  total protein half-life in vivo: 6.19 ± 1.3 h
[8]
  total protein half-life in vivo: 3.69 ± 0.5 h
[9]
  total protein half-life in vivo: 6.81 ± 0.24 h
[12]
  total protein half-life in vivo: 5.23 ± 0.067 h
[10]
  total protein half-life in vivo: 9.34 ± 0.24 h

## MSEIVIRHAETRDYEAIRQIHAQPEVYCNTLQVPHPSDHMWQERLADRPGIKQLVACIDGDVVGHLTIDVQQRPRRSHVADFGICVDSRWKNRGVASALMREMIEMCDNWLRVDRIELTVFVDNAPAIKVYKKYGFEIEGTGKKYALRNGEYVDAYYMARVK
[1]
  total protein half-life in vivo: 4.84 ± 0.053 h
[2]
  total protein half-life in vivo: 3.7 ± 0.65 h
[3]
  total protein half-life in vivo: 4.09 ± 0.13 h
[11]
  total protein half-life in vivo: 4.56 ± 0.45 h
[4]
  total protein half-life in vivo: 3.82 ± 0.33 h
[5]
  total protein half-life in vivo: 3.03 ± 0.086 h
[6]
  total protein half-life in vivo: 4.83 ± 0.18 h
[7]
  total protein half-life in vivo: 10.4 ± 0.85 h
[8]
  total protein half-life in vivo: 3.91 h
[9]
  total protein half-life in vivo: 6.73 ± 0.38 h
[12]
  total protein half-life in vivo: 5.26 ± 0.41 h
[10]
  total protein half-life in vivo: 11.3 ± 0.22 h

## MFRPFLNSLMLGSLFFPFIAIAGSTVQGGVIHFYGQIVEPACDVSTQSSPVEMNCPQNGSIPGKTYSSKALMSGNVKNAQIASVKVQYLDKQKKLAVMNIEYN
[5]
  total protein half-life in vivo: 0.288 h
[6]
  total protein half-life in vivo: 0.225 h

## MSDKFGEGRDPYLYPGLDIMRNRLNIRQQQRLEQAAYEMTALRAATIELGPLVRGLPHLRTIHRQLYQDIFDWAGQLREVDIYQGDTPFCHFAYIEKEGNALMQDLEEEGYLVGLEKAKFVERLAHYYCEINVLHPFRVGSGLAQRIFFEQLAIHAGYQLSWQGIEKEAWNQANQSGAMGDLTALQMIFSKVVSEAGESE
[1]
  total protein half-life in vivo: 4.96 ± 0.27 h
[2]
  total protein half-life in vivo: 4.09 ± 0.47 h
[3]
  total protein half-life in vivo: 4.81 ± 0.64 h
[11]
  total protein half-life in vivo: 4.4 ± 0.57 h
[4]
  total protein half-life in vivo: 4.69 ± 0.42 h
[6]
  total protein half-life in vivo: 6.07 ± 0.18 h
[7]
  total protein half-life in vivo: 10.2 ± 1.9 h
[8]
  total protein half-life in vivo: 4.39 ± 0.17 h
[9]
  total protein half-life in vivo: 7.12 ± 0.43 h
[12]
  total protein half-life in vivo: 6.02 ± 0.4 h
[10]
  total protein half-life in vivo: 7.72 ± 3.9 h

## MKKIPLGTTDITLSRMGLGTWAIGGGPAWNGDLDRQICIDTILEAHRCGINLIDTAPGYNFGNSEVIVGQALKKLPREQVVVETKCGIVWERKGSLFNKVGDRQLYKNLSPESIREEVAASLQRLGIDYIDIYMTHWQSVPPFFTPIAETVAVLNELKSEGKIRAIGAANVDADHIREYLQYGELDIIQAKYSILDRAMENELLPLCRDNGIVVQVYSPLEQGLLTGTITRDYVPGGARANKVWFQRENMLKVIDMLEQWQPLCARYQCTIPTLALAWILKQSDLISILSGATAPEQVRENVAALNINLSDADATLMREMAEALER
[1]
  total protein half-life in vivo: 3.71 ± 1.3 h
[3]
  total protein half-life in vivo: 4.29 ± 0.48 h
[4]
  total protein half-life in vivo: 4.19 ± 0.18 h
[5]
  total protein half-life in vivo: 2.96 ± 0.2 h
[6]
  total protein half-life in vivo: 5.64 ± 1.4 h
[7]
  total protein half-life in vivo: 8.09 ± 1.9 h
[8]
  total protein half-life in vivo: 3.97 ± 0.2 h
[9]
  total protein half-life in vivo: 6.75 h
[12]
  total protein half-life in vivo: 6.344 ± 0.018 h
[10]
  total protein half-life in vivo: 11.9 ± 0.44 h

## MESNNGEAKIQKVKNWSPVWIFPIVTALIGAWVLFYHYSHQGPEVTLITANAEGIEGGKTTIKSRSVDVGVVESATLADDLTHVEIKARLNSGMEKLLHKDTVFWVVKPQIGREGISGLGTLLSGVYIELQPGAKGSKMDKYDLLDSPPLAPPDAKGIRVILDSKKAGQLSPGDPVLFRGYRVGSVETSTFDTQKRNISYQLFINAPYDRLVTNNVRFWKDSGIAVDLTSAGMRVEMGSLTTLLSGGVSFDVPEGLDLGQPVAPKTAFVLYDDQKSIQDSLYTDHIDYLMFFKDSVRGLQPGAPVEFRGIRLGTVSKVPFFAPNMRQTFNDDYRIPVLIRIEPERLKMQLGENADVVEHLGELLKRGLRGSLKTGNLVTGALYVDLDFYPNTPAITGIREFNGYQIIPTVSGGLAQIQQRLMEALDKINKLPLNPMIEQATSTLSESQRTMKNLQTTLDSMNKILASQSMQQLPTDMQSTLRELNRSMQGFQPGSAAYNKMVADMQRLDQVLRELQPVLKTLNEKSNALVFEAKDKKDPEPKRAKQ
[1]
  total protein half-life in vivo: 6.4 ± 0.49 h
[2]
  total protein half-life in vivo: 7 ± 0.91 h
[11]
  total protein half-life in vivo: 6.43 ± 0.21 h
[4]
  total protein half-life in vivo: 5.75 ± 0.35 h
[5]
  total protein half-life in vivo: 3.341 ± 0.027 h
[6]
  total protein half-life in vivo: 7.13 ± 0.87 h
[7]
  total protein half-life in vivo: 12.8 ± 1.1 h
[8]
  total protein half-life in vivo: 5.99 ± 0.28 h
[9]
  total protein half-life in vivo: 12.9 ± 0.71 h
[12]
  total protein half-life in vivo: 6.06 ± 0.058 h

Reference: the supplement of paper PMC11246515
